Test results as given in the nanobody polyreactivity screen of Harvey et al. (2022).

Experiment: yeast display, Sf9 membrane polyspecificity reagent, FACS + sequencing; frameworks hold sequencing errors
Method in brief: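 In a synthetic yeast display library (Saccharomyces cerevisiae BJ5465), nanobody expression was induced with galactose for 36–48 hours. FACS gates were set low and high (top ~1%) using anti-HA fluorescence for expression and streptavidin fluorescence for binding of the Sf9 membrane reagent. Each polyreactivity label is drawn from the gate of origin.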

QVHLVESGGGLVQAGGSLRLSCAASGIIISSYAMGWYRQAPGKERELVAAITWGGTRTNYADSVKGRFTISRDNAKNTVYLQMNSLKPEDTAVYYCAADKYLYGRLTRNFHYYYWGQGTQVTVSS
polyreactivity (PSR sort gate): low polyreactivity

QVQLEESGGGLVQAGGSLRLSCAASGSTFWFNAMGWYRQAPGKERELVAVITWSGDGTYYADSVKGRFTISRDNANYTVYLQRNSLKPEDTAVYYCAKGFERYPWYDYWGQGTQVTVSS
polyreactivity (PSR sort gate): low polyreactivity

QFQLVESGGGLDQAGGSLRLSCAASGLIFSTYSMGLYIQARGKETELVAAISGTGSTYYADSVKGRFTISRDNAKNTVYLQMNSLKPEDTAVYYCNADTYYAGRRYDYWGQGTQVTVSS
polyreactivity (PSR sort gate): low polyreactivity

QVQLVESGGGLVQAGGSLRLSCAASGRTSWRYAMGWYRQAPGKERELVAANNRGGSTYYADSVKGRFTISRDNAKNTVYLQMNSLKPEDTAVYYCAVDTPLEYYHQQAYVAGEYWGQGTQVTVSS
polyreactivity (PSR sort gate): low polyreactivity

QVQLVESGGGLVQAGGSLRLSCAASGSNSYFNAMGWYRQAPGKERELVAAITSGGSTYYADSVKGRFTISRDNAKNTVYLQMNSLKPEDTAVYYCNAPLEWGVYAAQNWDDGYWGQGTQVTVSS
polyreactivity (PSR sort gate): low polyreactivity

QVQLVESGGGLVQAGGSLRLSCAASGSTFNRYAMGWYRQEPGTERELVASIRISGGSTYYADSVKGRFTISRDNAKNTVYLQMNSLKPEDTAVYYCNAKLFIRWFTYDFLGQGTQVTVSS
polyreactivity (PSR sort gate): low polyreactivity

QVQLVDSGGGLVQAGGSLRLSCAASGRIFRDNCMVCYRQAPGKERELVAAIRRSGGSTYYADSVKGRFTISRDNAKNSVYLQMNSLIPEDTAVYYCATPPYPGREYWGQGSQVTVSS
polyreactivity (PSR sort gate): high polyreactivity

QVHFVESGGGLVQAGGSLRLSSAASGRTFQYNAMGWYRQAPGKERELVARITWSGDSTYYADSVKGRFTISRDNAKNSVYLQMNSLKPEDTAVYYCNAGRRWRRTAYDYWGQGTQVTVSS
polyreactivity (PSR sort gate): high polyreactivity

QVQLVESGGGFVQAGGSLRLSCAASGSTFSYYAMGWYRQAPGKERELVAAINWRGTNTYYADSVKGRFTISRDNAKNTVYLQMNSLKPEDTAVYYCNKESYRSSSPYNYWGQGTQVTVSS
polyreactivity (PSR sort gate): high polyreactivity

QVQLVESGGGLVQAGGSLRLSCAASGRTFSAYAMGWYRQAPGKERELVAAISRSGGSTYYADSVKGRFTISRDNAKNTVYLQMNSLKPEDTAVYYCAAKGGSGLYYWGQGTQVTVSS
polyreactivity (PSR sort gate): high polyreactivity

QVQLVESGGGLVQAGGSLRLSCAASGFIFHRYAMGWYRQAPGKERELVAAISSSGGSTYYADSVKGRFTISRDNAKNTVYLQMNSLKPEDTAVYYCAAEEEEFIYDYWGQGTQVTVSS
polyreactivity (PSR sort gate): high polyreactivity

QVQLVESGGGLVQAGGSLRLSCAASGRTFTSNAMRWYRQEPGNERELVAAISNRGTRTYYADSVKGRFTISRDNAKNTVYLQMHILKPEETAVYYCAASERDQRFKHYYWGLGTQVTVSS
polyreactivity (PSR sort gate): high polyreactivity

QVQLVESGGGLVQAGGSLRLSCAASGGTFKTYVMGWSRQEPGKERELVAVISGSGASTYYADSVKGRFTISRDNAKNTVYLQMNSLKPEDTAVYYCAARYAWGWSGYYYWGQGTQVTVSS
polyreactivity (PSR sort gate): high polyreactivity

QVHLVESGGGLVQAGGSLRLSCAASGLTFYWYTMGWYRQAPGKERELVAAITSGGSTSYADSVKGRFTISRDNAKNTVYLQMNSLKPEDTAVYYCAADGQVSGYDYWGQGTQVTVSS
polyreactivity (PSR sort gate): high polyreactivity

QVQLVESGGGLVQAGGSLRLSCAASGITFYDYAMGWYRPAPGKERELVAAINSGDSTNYADSVKGRFTISRDNAKNTVYLQMNSLKPEDTAVYYCAADRYYYSWYTIWYRERIYYWGQGTQVTVSS
polyreactivity (PSR sort gate): low polyreactivity

QVQLVESGGGLVQAGGSLRLSCAASGSIIAGYTMGWYRQAPGKERELVAGIRRGGSTNYADSVKGRFTISRDNAKNTVYLQMNSLKPEDTAVYYCAAYYRLDYDYWGQGTQVTVSS
polyreactivity (PSR sort gate): high polyreactivity

QVQLVESGGGLVQAGGSLRLSCAASGLIFYGNAMGWYRQEPGKERELVAAISWSGGNTSYADSVKGRFTISRDNAKNTVYLQMNSLKPEVTAVYYCNADSLPSVERYGYWGQGTQVTVSS
polyreactivity (PSR sort gate): low polyreactivity

QVQLVESGGGLVHAGGILRLSCAASGRIFDYNVMGWYRQAPGKERELVADINGSGGGTNYADSVKGRFTISRDNAKNTVYLQMNSLKPEDTAVYYCAAEWYSYGARSSYGGSRNDYWGHGTQVTVSS
polyreactivity (PSR sort gate): low polyreactivity

QVQLVESVGGLVLAGARLRLSCAASGRIFRFYAMGWYREAPGKERELVAAISSGGRTYSADSVKGRFTISRDNAKNTVYLQMNSLKPEDTAVYYCNTPYTVRGRYTSDYWGQGTQVTVSS
polyreactivity (PSR sort gate): high polyreactivity

QVQLVESGGGLVQAGGSLRLICAASGRIFGKNDMGWYREAPRKEREFVATIDWSGGSTYYADSVKGRFTISRDNAKNTVDLQMNSLIPEDNAVYYCAARQYWTTDLPFQRYYYWGQGTQVTVSS
polyreactivity (PSR sort gate): low polyreactivity

QVQIEESGGGLVQAGGSLRLSCAASASIFYPNAMGWYRQAPVKEREFVAAITRNGDSTYYADSVKGRFTISRDNAKNTVYLQMNSLKPEDTAVYYCNTDGQGIYSYNKDLSWISGYDYWGQGTQVTVSS
polyreactivity (PSR sort gate): low polyreactivity

QVQLVESGGGLVQAGGSLRLSCAASGFIFGYNAMGWYRQAPGIERELVAAITASGGSTYYADSVKGRFTISLDNAKNTVYLQLNSLIPEDTAVYYCATVLRKNGERGNRLYYWGQGTQVTVSS
polyreactivity (PSR sort gate): high polyreactivity

QVQLVESGAGLVQAGGSLRLSCAASGRTFHGYAMGWYRQAPRKERELLARINWSDGRTYYADSVKGRFTISRDNAKNTVFLQMNSLKPEDTAVYYCAADKTVSYAPAWYYYWGQGTQVTVSS
polyreactivity (PSR sort gate): low polyreactivity

QDQLVESGGGLVQAGGSLRLSCAASGSIFPRYDMGWYRQAPGKERELVAAITGSGSSTYYADSVKGRFSISRDNAMNTVYLQMNSLKPEDTAGYYCAARKSRPPFPPPFDYYWRQGTQVTVSS
polyreactivity (PSR sort gate): low polyreactivity

QVQLVESGGGLVQAGGILRFSCAASGRISVVNAMAWFRQAPGKARELVAAIRRASTNYADSVKGRFTISRDNAKNTVYLQMNSLKPEDTAVYYCAARVYGINIFEYWGQGTQVTLSS
polyreactivity (PSR sort gate): high polyreactivity

QVQLVESGGGLVQAGGSLRLSCAASGSIFSSNAMGWYRQAPGKERELVAAITVSGGSTYYADSVKGRFTISRDNAKNTVYLQMNSLKPEDTAVYDCAVPVTYYFDGSWWRYDYWGQGTQVTVSS
polyreactivity (PSR sort gate): high polyreactivity

QVQLVESGGGLVQAGGSLRLSCAASGGIFVANAMGWYRQAPGKERELVAAISRSGGSTYYADSVKGRFTISRDNAKNTVYLQMNSLKPEDTAVYYCAAKSRRQYTVGLTSDYWGQGTQVTVSS
polyreactivity (PSR sort gate): high polyreactivity

QVQLQESGGCLVQAGGSQRLSCAASGYIFYFQYMGWYRQAQGKEREFVAAISDGANTNYADSVKGRFTISRDNAKNTEYLKMNSLKPEDTAVYYCAVYADENYYYIYWGQGTQVTVSS
polyreactivity (PSR sort gate): low polyreactivity

QVQLVESGGGLVQAGGSLRLSCAASGRIFSAYAMGWYRPAPGKERELVAAISWSGGSTYYADSVKGRFTISRDNAKNTVYLQMNSLKPEDTAVYYCAADYFYTSWYQHDYWGQGTQVTVSS
polyreactivity (PSR sort gate): low polyreactivity

QVQLVESGGGLVQAGGSLRLSCAASGRTFTYYGMGWYRQAPGKERELVAAITERGDSTYYADSVKGRFTISRDNAKNTVYLQMNSLKPEDTAVYYCAAAEHLTRPSSPTQDGDHWGQGTQVTVSS
polyreactivity (PSR sort gate): low polyreactivity

QVQRVESGGGIVQAGGSLRLSCAASRRIFPYYALGWYRQSPGKERELVAAISQSDGSTYYADSVKGRFTISRDNAKNTVYLQMNSLKPEDTAVYYWAKRQASYTKHRKGRGDYWGQGTQVTVSS
polyreactivity (PSR sort gate): low polyreactivity
